Experimental data as given in patent US10456446B2, “Use of human small leucine zipper protein in osteogenesis procedure” (Korea University Research and Business Foundation, priority 2013, dated 2019).
“Also recorded” adds a separate entry of the source.

B1: sLZIP: human small leucine-zipper protein, isoform of LZIP, 354 amino acids, no transmembrane domain, GenBank FJ263669, SEQ ID NO: 1 (protein, listed as Homo sapiens)
chain: MELELDAGDQDLLAFLLEESGDLGTAPDEAVRAPLDWALPLSEVPSDWEVDDLLCSLLSPPASLNILSSSNPCLVHHDHTYSLPRETVSMDLESESCRKEGTQMTPQHMEELAEQEIARLVLTDEEKSLLEKEGLILPETLPLTKTEEQILKRVRRKIRNKRSAQESRRKKKVYVGGLESRVLKYTAQNMELQNKVQLLEEQNLSLLDQLRKLQAMVIEISNKTSSSSMYSSDTRGSLPAEHGVLSRQLRALPSEDPYQLELPALQSEVPKDSTHQWLDGSDCVLQAPGNTSCLLHYMPQAPSAEPPLEWPFPDLFSEPLCRGPILPLQANLTRKGGWLPTGSPSVILQDRYSG
B2: N domains of sLZIP: N-terminal deletion mutant of sLZIP (1-228) (protein)
chain: MELELDAGDQDLLAFLLEESGDLGTAPDEAVRAPLDWALPLSEVPSDWEVDDLLCSLLSPPASLNILSSSNPCLVHHDHTYSLPRETVSMDLESESCRKEGTQMTPQHMEELAEQEIARLVLTDEEKSLLEKEGLILPETLPLTKTEEQILKRVRRKIRNKRSAQESRRKKKVYVGGLESRVLKYTAQNMELQNKVQLLEEQNLSLLDQLRKLQAMVIEISNKTSSSS
modifications: left off: a dimerising Fc or GST

Assays:
[1] = test system: PPARγ2; test: GST / His pull-down and immunoprecipitation of sLZIP with PPARγ2; format: binding
Procedure: 293T cells were obtained and washed with cold PBS. The cells were re-suspended in an IP lysis buffer [25 mM of Tris-HCl (pH 7.4), 150 mM of NaCl, 1 mM of EDTA, 1% NP-40 and 5% glycerol, and a protease inhibitor]. A suspension was centrifuged at 16,000×g for 20 minutes at 4° C. Supernatants were collected and incubated with 0.5 μg of appropriate antibodies and 25 μl of protein A/G-agarose or a GST Sepharose 4B bead for 24 hours at 4° C. A protein complex was centrifuged at 1,000×g with a cold IP lysis buffer for 1 minute and washed five times. The final pellet was re-suspended in 50 μl of an SDS-sample buffer containing 5% β-mercaptoethanol and heated for 10 minutes at 100° C. A protein sample was isolated in SDS-PAGE (8 to 10%) and transferred to nitrocellulose membranes. Co-precipitated proteins were detected according to western blotting using specific antibodies.
In order to examine whether the transcriptional activity of PPARγ2 is regulated by interaction with sLZIP, interaction between sLZIP and PPARγ2 was examined. For this purpose, 293T cells were transfected with GST-sLZIP and Myc-PPARγ2. Cell lysates were obtained and GST pull-down analysis was performed using a glutathione 4B bead. A protein complex was analyzed in SDS-PAGE and then immunoblotted with specific antibodies (FIG. 2A). The 293T cells were transfected with GST-PPARγ2 and Flag-sLZIP, and identified according to GST-pull-down analysis (FIG. 2B). PPARγ2 was translated in vitro by a TNT translation system (Promega). His-sLZIP proteins were expressed in BL21 cells using an IPTG-inducement system. Purified His-sLZIP proteins were subjected to His pull-down analysis. Proteins bound to the bead were analyzed in SDS-PAGE, and then immunoblotted with anti-PPARγ2 and anti-His antibodies (FIG. 2C). GFP-PPARγ2 and Flag-sLZIP constructs were expressed in C3H10T1/2 cells, and analyzed using mouse anti-Flag and Texas Red-labeled anti-mouse antibodies under a fluorescence microscope. The nucleus was stained with DAPI (FIG. 2D).
Activation of many nuclear receptors depends on a supplement of coactivators. Therefore, a domain of sLZIP necessary for binding with PPARγ2 was examined. For this purpose, 293T cells were transfected with GST-full length sLZIP (1-354), N-terminal deletion mutant sLZIP (1-228), C-terminal deletion mutant sLZIP (229-354), CC-terminal deletion mutant sLZIP (297-354) and PPARγ2. Cell lysates were obtained and GST pull-down analysis was performed using a glutathione 4B bead. A protein complex was analyzed in SDS-PAGE, and then immunoblotted with specific antibodies (FIG. 3A). 293T cells were transfected with Flag-full length PPARγ2, full length PPARγ2, N-terminal deletion mutant PPARγ2 (1-310), C-terminal deletion mutants PPARγ2 (139-505) and GST-sLZIP. Cell lysates were obtained and GST pull-down analysis was performed. A protein complex was analyzed in SDS-PAGE, and then immunoblotted with anti-GST and anti-Flag antibodies (FIG. 3B).
For this purpose, 293T cells were transfected with GST-PPARγ2 and Flag-sLZIP and were treated or not treated with 10 nM of RZD for 24 hours. Cell lysates were obtained and GST pull-down analysis (FIG. 5A) and immunoprecipitation (FIG. 5B) were performed using a glutathione 4B bead. A protein complex was analyzed in SDS-PAGE, and immunoblotted with anti-GST and anti-Flag antibodies. GST-PARγ2 and Flag-sLZIP were expressed in the 293T cells, and the cells were treated with 10 nM of RZD according to time of day. The cell lysates were GST pull-down analyzed (FIG. 5C). 293T cells were transfected with GST-HDAC3 and Flag-sLZIP, and treated or not treated with 10 nM of RZD for 24 hours. The cell lysates were GST pull-down analyzed (FIG. 5D). Flag-sLZIP was expressed in the 293T cells, and the cells were treated with 10 nM of RZD for 24 hours. Immunoprecipitation analysis of the cell lysates was performed using anti-NCoR1 antibodies. […]

[2] = test system: BMMs (bone marrow macrophages)-derived mature osteoclasts; test: Osteoclast marker mRNA in osteoclasts derived from bone marrow macrophages of sLZIP TG mice, real-time PCR; format: cell-based, mouse; details: RANKL 100 ng/mL and M-CSF 30 ng/mL, wild type versus sLZIP TG mice
Procedure: Real-time PCR was performed in LightCycler 480 using a SYBR Green Master Mix (Roche, Mannheim, Germany). β-actin was used as an internal control group. A target gene expression level rate with respect to β-actin was calculated using CT method. A Ct value is defined as a PCR cycle number at which a fluorescence signal reaches a fixed target threshold. Experiments were technically repeated three times for each experiment.
When a bone is initially developed during an embryo, cartilage is formed and hardened to a bone according to a so-called ossification (or osteogenesis) process. In order to examine whether sLZIP-mediated osteogenesis is associated with cartilage development, an effect of sLZIP in chondrocyte differentiation was examined. For this purpose, ATDC5 cells were temporarily transfected with sLZIP at different contents (0.1 μg to 0.5 μg). Total RNA was extracted from the cells, and an mRNA expression level of a chondrocyte marker was measured using RT-PCR analysis (FIG. 8A) and real-time PCR (FIG. 8B). GAPDH was used as an internal control group. An experiment was repeated three times. […] Total RNA was extracted from the mature osteoclasts, and an mRNA expression level of an osteoclast marker was measured using real-time PCR (FIG. 8D). […]

[3] = GST pull-down, transfected 293T cells

Molecule	interaction with PPARγ2 [1, 3]	interaction with PPARγ2 ([1]; GST pull-down, transfected 293T cells, listed as wild type sLZIP)	direct interaction with PPARγ2 ([1]; His pull-down, purified His-sLZIP and in vitro translated PPARγ2)	interaction with PPARγ2 ([1]; ligand treated (10 nM RZD), GST pull-down or immunoprecipitation)	interaction with PPARγ2 ([1]; no stimulation with a ligand, GST pull-down)	osteoclast markers (Oscar, Ctsk, TARP) [2]
B1	PPARγ2 interacted with sLZIP	interacted with PPARγ2	directly bound	dissociated from sLZIP; also recorded: dissociated from PPARγ2 in a time-dependent manner	interacted with PPARγ2	no difference
B2	not interacted with PPARγ2					
